The target in experiment [1] is MGL receptor on murine bone marrow-derived dendritic cells (mouse (endogenous in BMDCs)) (UniProt Q8JZN1).
Experiment [2] has as its target peptide 12, MUC1 tandem repeat peptide with the TPEaa trivalent alpha-S-GalNAc glycocluster 1 at the N-terminus, biotinylated. As to the kind of experiment: ELISA; biotinylated peptides 9-14 coupled to streptavidin-coated plates at twofold serial dilutions; probed with recombinant MGL-Fc at a constant concentration; detection with goat anti-human Fc-peroxidase; EC50 from curve fitting over the peptide concentration.

Experiment [3] deals with peptide 14, MUC1 tandem repeat (glyco)peptide with a triethylene glycol spacer and the TPEaa trivalent alpha-S-GalNAc glycocluster 1 at the N-terminus, biotinylated. Described as above.
The target in experiment [4] is peptide 13, MUC1 tandem repeat (glyco)peptide with the TPEaa trivalent alpha-S-GalNAc glycocluster 1 at the N-terminus, biotinylated. Described as above.

Consider two molecules from article PMC10288512, “MUC1 Glycopeptide Vaccine Modified with a GalNAc Glycocluster Targets the Macrophage Galactose C-type Lectin on Dendritic Cells to Elicit an Improved Humoral Response” (Journal of the American Chemical Society, 2023).

UniProt Q8JZN1, sequence (Q8JZN1 entry or part of it): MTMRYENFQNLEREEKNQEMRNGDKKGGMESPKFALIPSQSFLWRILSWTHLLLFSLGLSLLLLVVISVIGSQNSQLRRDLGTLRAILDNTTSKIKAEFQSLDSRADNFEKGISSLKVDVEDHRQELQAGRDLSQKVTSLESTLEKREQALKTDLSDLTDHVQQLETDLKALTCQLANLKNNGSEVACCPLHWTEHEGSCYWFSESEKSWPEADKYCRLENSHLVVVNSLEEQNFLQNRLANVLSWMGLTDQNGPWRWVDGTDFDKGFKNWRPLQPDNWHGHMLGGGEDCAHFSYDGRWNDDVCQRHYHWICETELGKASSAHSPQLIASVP

For “peptide 12, MUC1 tandem repeat peptide with the TPEaa trivalent alpha-S-GalNAc glycocluster 1 at the N-terminus, biotinylated”, the decrease in accessible MGL on the BMDC surface (anti-MGL antibodies, flow cytometry) after treatment with peptide 12 for 30 min at 37 °C, against untreated cells in experiment [1] stood at 48%.

B1: recombinant MGL (macrophage galactose-type lectin) tagged with a human IgG1 Fc fragment (Fc fusion)
chain: QNSKFQRDLVTLRTDFSNFTSNTVAEIQALTSQGSSLEETIASLKAEVEGFKQERQAGVSELQEHTTQKAHLGHCPHCPSVCVPVHSEMLLRVQQLVQDLKKLTCQVATLNNNASTEGTCCPVNWVEHQDSCYWFSHSGMSWAEAEKYCQLKNAHLVVINSREEQNFVQKYLGSAYTWMGLSDPEGAWKWVDGTDYATGFQNWKPGQPDDWQGHGLGGGEDCAHFHPDGRWNDDVCQRPYHWVCEAGLGQTSQESH
With B1, the fold avidity against peptide 11 in experiment [2] and in experiment [4] was 10 fold throughout. Moreover, the concentration for a half-maximal effect (EC50) in experiment [3] was 2.65 nM; in experiment [4], 3.9 nM.
